Test results from EP4201483A1, “LPL1 DERIVED IMMUNE ENHANCING PEPTIDES” (priority 2021, dated 2023).

Key:
HaCaT cells [1] = assay: S. aureus USA300 invasion / internalization by HaCaT keratinocytes; format: cell-based, human; parameters: key: ⇑: increased invasion and F-actin level; ⇓: decreased invasion and F-actin level; details: Triggering invasion of USA300 by keratinocytes (HaCaT)
Procedure: (§1) To identify Lpli motifs that interact with the target protein Hsp90α the inventors synthesized peptides of various length covering the whole Lpli protein. All the peptides (> 40) were tested for their ability a) to interact with Hsp90α, and b) to trigger S. aureus internalization by keratinocyte-like HaCaT cells. Table 1: Selected Lpl1 derived peptides with their effect on USA300 invasion in HaCaT keratinocytes, interaction with Hsp90α and F-actin levels in HaCaT cells
The inventors compared the effect on host internalization of L13 and L15 with that of geldanamycin. Geldanamycin is a well-known cell permeable anti-neoplastic drug that competes with ATP for binding to Hsp90, thus inhibiting Hsp90 activity (Gorska et al., 2012). This in turn leads to inactivation, destabilization, and eventual degradation of Hsp90 client proteins, The geldanamycin analog 17AAG decreased F-actin formation upon Hsp90 inhibition (Taiyab & Rao Ch, 2011).

HaCaT cells [2] = assay: F-actin levels in HaCaT cells; format: cell-based, human; parameters: key: ⇑: increased invasion and F-actin level; ⇓: decreased invasion and F-actin level
Procedure: as §1

Molecule	Invasion (HaCaT cells [1])	F-actin levels (HaCaT cells [2])
LNC2: Lpl1 derived peptide, 64 aa, sequence shown as image only (peptide) peptide: DEIVKELRSRYNISTEKSPILKMHIDGDLKGSSVGYRKLEIDFSKRENSKLSVIEFLSYKPAKK	⇑	⇑
TAKGHYFVTTFYRNGKLPDEKNYKIEMKNNKIILLDEVKDDKLKQKIENFKFFGQYANL KELRK (peptide, listed as Staphylococcus aureus, 64 aa domain of S.aureus Lpli protein) TAKGHYFVTTFYRNGKLPDEKNYKIEMKNNKIILLDEVKDDKLKQKIENFKFFGQYANLKELRK	⇑	⇑
